Laboratory results as given in patent US20220242962A1 (APTEVO RESEARCH AND DEVELOPMENT, published 2022).

Experiments:
Assay in all cases: flow cytometry, CHO-K1SV transfectants
[1] = target: T1, Fc gamma receptor RIIB/C on CHO-K1SV cells (human, UniProt P31994 43-310)
T1 construct: whole, on cells
T1 sequence (looked up): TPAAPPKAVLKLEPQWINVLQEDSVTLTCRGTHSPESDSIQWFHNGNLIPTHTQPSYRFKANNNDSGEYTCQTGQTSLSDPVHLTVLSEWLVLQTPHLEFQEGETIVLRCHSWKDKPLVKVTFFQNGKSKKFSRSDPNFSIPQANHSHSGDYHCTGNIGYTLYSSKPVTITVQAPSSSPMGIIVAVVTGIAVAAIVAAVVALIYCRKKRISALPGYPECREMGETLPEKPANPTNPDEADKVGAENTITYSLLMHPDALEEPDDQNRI
Protocol: (§1) CHO-K1SV cells stably transfected with a series of FcγR receptors were incubated with each of the […] listed in Table 23. A typical experiment labeled approximately 100,000 cells per well, in 96-well plates, with a range of binding molecule concentrations of 1 to 1000 nM, in 100 μl of PBS buffer with 0.2% BSA and 2 mM EDTA, for 30 minutes on ice, followed by washes and incubation with PE-labeled minimum cross species reactive secondary antibody, goat anti-human IgG Fcγ, F(ab′)2 ([…]) for 30 minutes to 1 hour on ice. Signal from bound molecules was detected using a LSR-II™ flow cytometer (BD Biosciences) and analyzed by FlowJo flow cytometry analysis software. Mean fluorescence intensity (MFI) of bound molecules on cells was determined after exclusion of doublets.

[2] = target: T2, Fc gamma receptor RIIIB on CHO-K1SV cells (human, UniProt O75015 17-200)
T2 construct: whole, on cells
T2 sequence (O75015 17-200): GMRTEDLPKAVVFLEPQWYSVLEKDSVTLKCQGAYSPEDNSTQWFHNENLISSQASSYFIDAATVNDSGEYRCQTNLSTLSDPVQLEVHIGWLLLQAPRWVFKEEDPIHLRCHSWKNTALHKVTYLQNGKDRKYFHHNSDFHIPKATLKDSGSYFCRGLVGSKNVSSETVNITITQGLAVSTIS
Protocol: as §1

[3] = target: T3, Fc gamma receptor RIIA R131 on CHO-K1SV cells (human, UniProt P12318 34-317)
T3 construct: whole, on cells
T3 sequence (looked up): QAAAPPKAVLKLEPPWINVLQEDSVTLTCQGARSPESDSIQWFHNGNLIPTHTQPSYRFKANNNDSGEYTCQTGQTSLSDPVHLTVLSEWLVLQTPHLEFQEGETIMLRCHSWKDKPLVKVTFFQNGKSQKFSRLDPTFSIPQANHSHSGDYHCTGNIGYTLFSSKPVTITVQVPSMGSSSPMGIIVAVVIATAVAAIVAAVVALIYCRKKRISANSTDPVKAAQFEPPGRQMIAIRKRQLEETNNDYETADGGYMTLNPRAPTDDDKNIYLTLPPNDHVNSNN
Protocol: as §1

- binding result [1]: no binding (tested: 1 to 1000 nM)
- binding result [2]: no binding (tested: 1 to 1000 nM)
- binding result [3]: no binding (tested: 1 to 1000 nM)
B1: TSC 1005 (other)
chain: EPKSSDKTHTCPPCPAPPVAAPSVFLFPPKPKDTLMISRTPEVTCVVVDVSHEDPEVKFNWYVDGVEVHNAKTKPREEQYNSTYRVVSVLTVLHQDWLNGKEYKCAVSNKALPAPIEKTISKAKGQPREPQVYTLPPSRDELTKNQVSLTCLVKGFYPSDIAVEWESNGQPENNYKTTPPVLDSDGSFFLYSKLTVDKSRWQQGNVFSCSVMHEALHNHYTQKSLSLSPG
notes: IgG1 Fc with E233P, L234V, L235A, deletion of G236, G237A, K322A (EU); also called PVAdel TSC01005
